Assay results taken from PMC2945410 (Journal of molecular biology, 2010).

Target: the molecule itself
Experiment: SEC

B1: EAL domain of TBD1265 from Thiobacillus denitrificans (aa 487-758) (domain or fragment)
chain: not shown
modifications: Se-Met substituted (for the crystals)
- stoichiometry N: 2
